“Also recorded” adds a separate entry of the source.
T1: native (thymus) HMG1 binding to RAGE/Fc (Bos taurus, UniProt P10103)
T1 construct: from tissue; host or cells: bovine (calf) thymus
T1 sequence (P10103 2-215 limits assumed): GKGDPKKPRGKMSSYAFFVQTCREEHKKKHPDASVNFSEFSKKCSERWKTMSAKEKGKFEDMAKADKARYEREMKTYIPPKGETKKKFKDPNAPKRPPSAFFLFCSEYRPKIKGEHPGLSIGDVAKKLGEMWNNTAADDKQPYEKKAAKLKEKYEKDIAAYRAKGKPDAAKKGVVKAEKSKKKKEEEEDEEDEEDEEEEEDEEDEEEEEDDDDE

B1: E11: human anti-HMG1 antibody, recognizes HMG1 A-Box; VL/VH aa SEQ ID NO: 24/26 (antibody, listed as Homo sapiens, V domains shown)
VH: EVQLLESGGGLVQPGGSLRLSCAASGFTFSRYQMNWVRQAPGKGLEWVSSISPSGGHTHYADSVKGRFTISRDNSKNTLYLQMNSLRAEDTAVYYCAKDGRQGKISTVDHWGQGTLVTVSS
VL: AQDIQMTQSPGTLSLSPGERATLSCRASQSVRSNFLAWYQQKPGQAPRLLIYGASRRASGIPDRFSGSGFGADFTLSISRLEPEDFAVYYCQQYGSSPNTFGQGSRVEIK
B2: S16: human anti-HMG1 antibody, ATCC PTA-6259; VL/VH aa SEQ ID NO: 13/15 (antibody, listed as Homo sapiens, V domains shown)
VH: EVQLLESGGGLVQPGGSLRLSCAASGFTFSWYSMLWVRQAPGKGLEWVSYISPSGGFTNYADSVKGRFTISRDNSKNTLYLQMNSLRAEDTAVYYCARWDYNSGWYYDHWGQGTLVTVSS
VL: AQDIQMTQSPDTLSLSPGERATLSCRASQSVNSRNLAWYQQKPGQAPRLLIYGASTRATGIPDRFSGSVSGTEFTLTISSLQPDDFATYYCQQYNSYFTFGQGTKLEIK

How the values were obtained:
[1] = biological target: T1, native (thymus) HMG1 binding to RAGE/Fc; assay: Inhibition of native HMG1 binding to Rage-Fc (ELISA); set-up: species or system bovine; conditions: at the concentrations tested
Method: Inhibition of Native HMG1 Binding to Rage-Fc: Recombinant RAGE/Fc was coated on ELISA plate at 5 μg/mL, 0.1 mL/well. HMGB1 (0.5 μg/mL) was pre-incubated with anti-HMGB1 mAb clone E-11 or G-4 at different concentrations for 0.5 hr. After blocking the plate, anti-HMGB1 mAb pre-incubated HMGB1 was added to RAGE/Fc coated plate for 2 hr. RAGE bound HMGB1 was detected with Biotin labeled anti-HMGB1 pAb.

[2] = test system: LPS+HMG1 induced TNF-a release (TLR4 signaling); assay: Inhibition of HMG1 mediated enhancement of TLR4 signaling, LPS+HMG1 TNF-a release; format: cell-based, mouse
[3] = test system: active CIA mouse model of arthritis; assay: Active collagen-induced arthritis (CIA) mouse model; format: in vivo; conditions: percent protection, isotype control subtracted
Method: Induction of Active Collagen Induced Arthritis (CIA) in Mice: Six-eight week old male DBA/1J mice (Jackson Labs, Bar Harbor, Me.) were used. On day 0, isoflurane anesthetized animals were given an intradermal injection, at base of tail, of 200 μg bovine Type II collagen (CII) dissolved in 50 μl 0.1 N acetic acid and emulsified with an equal volume of complete Freund's adjuvant (Chondrex, Redmond, Wash.). Three weeks later on day 21 they were given a second similar intradermal injection of 100 μg of CII dissolved in 25 μl 0.1N acetic acid and emulsified with an equal volume of incomplete Freund's adjuvant (Difco, Detroit, Mich.).
(§1) Monitoring Disease in Mice: Beginning at day 14 all animals were observed daily to assess the status of the disease in their paws, which was done by assigning a qualitative clinical score to each of the paws. Every day, each animal has its 4 paws scored according to its state of clinical disease. The scoring is done by two observers, with at least one blinded. In addition, each mouse is weighed, to follow body weight changes, at the same time the paws are scored.
The grading scale for the 4 lateral digits of each paw are graded as involved or not involved, i.e., 1 or 0. For example, a maximally involved left rear paw would be scored: ankle=3, midfoot=3, digits=4 (clinical score=10 units) We would repeat this for each paw and sum the scores. […]

[4] = test system: AIA rat model of arthritis; assay: Adjuvant-induced arthritis (AIA) rat model; format: in vivo; conditions: percent protection, isotype control subtracted
Method: Induction of Adjuvant Induced Arthritis […]: Six-eight week old female DA rats (Harlen) were used. On day 0, isoflurane anesthetized animals were given an intradermal injection, at base of tail, 0.75 mg of mycobacterium butyricum (Difco #0640-33-7) mixed in 100 μl incomplete Freund's adjuvant (Difco, Detroit, Mich.).
The human anti-HMG1 antibody G4, the A-box-Fc fusion and the huIgG isotype control were administered at 10 mg/kg, every 3 days, day 0-15. Methotrexate was administered at 0.8 mg/kg, every 6 days, day 0-15 and Renbrel was administered at either 2.5 mg/kg every two days, day 0-15 for treatment group 5 or at 4 mg/kg, every 3 days, day 0-15 for treatment group 6. […]
as §1, with “Disease:” for “Disease in Mice:”, “6” for “14”, “The scoring is done by two observers, with at least one blinded.” left out
The joints of the 4 lateral digits of each paw are graded as involved or not involved, i.e., 1 or 0. For example, a maximally involved left rear paw would be scored: ankles=4, midfoot=4, MTP=4, PIP=4, DIP=4 (20 units). […]

Row | Molecule | block of native (thymus) HMG1 binding to RAGE [1] | inhibition of TNF-a release induced by LPS+HMG1 [2] | inhibition of signaling by LPS alone [2] | in vivo CIA active [3] [%] | in vivo AIA [4] [%]
1 | B1 | significant ability to block the binding of native HMG1 to RAGE; also recorded: can block native HMG1 binding | inhibits the release of TNF-a induced by LPS+HMG1; also recorded: could be blocked; also recorded: inhibit the release of TNFa induced by LPS+HMG1 | inhibit signaling by LPS alone | 0 | –
2 | B2 | – | – | – | – | 0
